The values that follow are results of earlier work, collected in article PMC3566329.

Data set [1] deals with Methylamine dehydrogenase (quinone) (Paracoccus denitrificans) (UniProt P22619). Nature of the data set: single turnover kinetics.
The target of data set [2] is preMADH (Paracoccus denitrificans) (UniProt P22619).

MauG (di-ferrous) (from UniProt Q51658): in data set [1], the dissociation constant (Kd) was 10.1 µM.
Turning to MauG (from UniProt Q51658), the dissociation constant (Kd) in data set [2] is less than 1.5 µM.
